Measurements: article PMC6549136

Molecular target: Rpc31, endogenous in hmt1Δ yeast cells (hypomethylated) (S. cerevisiae (endogenous in yeast cells)) (UniProt P17890)
Test: co-IP; α-Rpc31 antibody cross-linked to magnetic beads; yeast lysates at 10 mg/ml, 2 h at 4°C; three washes with PBS, 0.5% Triton X-100, 2.5 mM MgCl2; immunoblot; cells before and after treatment with CPZ for 1 h

Sequence of UniProt P17890 (P17890 whole entry, stated change not applied): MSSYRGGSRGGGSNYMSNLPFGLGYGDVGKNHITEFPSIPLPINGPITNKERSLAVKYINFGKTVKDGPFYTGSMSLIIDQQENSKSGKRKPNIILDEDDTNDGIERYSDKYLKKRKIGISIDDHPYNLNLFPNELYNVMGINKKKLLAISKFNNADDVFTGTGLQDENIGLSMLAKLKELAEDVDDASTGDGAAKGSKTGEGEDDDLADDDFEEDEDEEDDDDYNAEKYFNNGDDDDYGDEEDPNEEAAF

- association relative to that in WT cells, after CPZ (% lower than in WT cells): 40
Substance: Myc-tagged Maf1-7SA (from UniProt P41910 1-395) (natural protein)
